Experiments:
E. coli J5 = assay: Radial diffusion assay, antibacterial activity; assay type: cell-based; conditions: order: XMP.284, XMP.13, XMP.391, XMP.366, XMP.353, XMP.406, XMP.407 (most to least)
Procedure: To assess the antibacterial activity of the recombinantly produced peptides, additional experiments are conducted with E. coli J5 or E. coli E104 cells in a radial diffusion assay. For these experiments, cultures of E. coli J5 were grown overnight in TYE broth (15 g tryptone, 10 g yeast extract, 5 g NaCl per liter) and then grown to mid logarithmic phase in TEA broth media (Simon et al., Proc. Nat'l. Acad. Sci. (USA), 51:877-883 (1964)). E. coli J5 cells at 2-3×10^5 cells/mL were added to molten 0.8% agarose containing nutrient broth. Serial dilutions of peptides were prepared in 0.15 M NaCl. Five μl of the diluted peptides, or as a control, saline alone, were added to 3 mm wells prepared in the hardened agarose (5 μl/well). The plates were sealed with parafilm to prevent drying and incubated at 37° C. for 24 hours. Zones of inhibition were measured and the net areas of inhibition determined by subtracting the area comprising the 3 mm well from the area encompassing the 3 mm well plus the inhibition zone. Recombinantly produced peptides are assayed for antibacterial activity and compared to the equivalent synthetic peptides. […] Synthetic peptides XMP.406 and XMP.407 have the same sequences as peptides prepared from the encoded fusion protein described in Example 1, Section 7 and Example 3.

[1] = tested on: Candida albicans and Candida parapsilosis; conditions: 10^−6 M; pH 7.0 or 5.5; cited from earlier work
gram-negative bacteria = conditions: broad range of gram-negative bacteria; Elsbach and Weiss (1992); cited from earlier work
[2] = tested on: human, rabbit and sheep red blood cells and several human tumor cell lines; conditions: 10^−6 M; cited from earlier work
[3] = tested on: Staphylococcus aureus (four strains), Staphylococcus epidermidis, Streptococcus faecalis, Bacillus subtilis, Micrococcus lysodeikiticus, and Listeria …; conditions: 10^−6 M or 160 μg/mL; pH of either 7.0 or 5.5; cited from earlier work

XMP.284: BPI 149-161, K @ 152 (G) (SKVKWLIQLFHK)
antibacterial activity, rank order of synthetic peptides (E. coli J5): the most antibacterial activity

XMP.407: BPI 147-162, P @ 147 (S), A @ 153 (W), D @ 162 (I) (PKSKVGALIQLFHKKD)
antibacterial activity, rank order of synthetic peptides (E. coli J5): the least bactericidal

B1: BPI: bactericidal/permeability-increasing protein, isolated from granules of mammalian polymorphonuclear leukocytes, approximately 55 kD (protein, UniProt P17213 32-487, looked up)
Bactericidal …: VNPGVVVRISQKGLDYASQQGTAALQKELKRIKIPDYSDSFKIKHLGKGHYSFYSMDIREFQLPSSQISMVPNVGLKFSISNANIKISGKWKAQKRFLKMSGNFDLSIEGMSISADLKLGSNPTSGKPTITCSSCSSHINSVHVHISKSKVGWLIQLFHKKIESALRNKMNSQVCEKVTNSVSSELQPYFQTLPVMTKIDSVAGINYGLVAPPATTAETLDVQMKGEFYSENHHNPPPFAPPVMEFPAAHDRMVYLGLSDYFFNTAGLVYQEAGVLKMTLRDDMIPKESKFRLTTKFFGTFLPEVAKKFPNMKIQIHVSASTPPHLSVQPTGLTFYPAVDVQAFAVLPNSSLASLFLIGMHTTGSMEVSAESNRLVGELKLDRLLLELKHSNIGPFPVELLQDIMNYIVPILVLPRVNEKLQKGFPLPTPARVQLYNVVLQPHQNFLLFGADVVYK
toxic effect on fungi [1]: no toxic effect | concentration at which anti-bacterial activity is exhibited (as low as) (gram-negative bacteria): 10^−8 to 10^−9 M | toxicity to higher eukaryotic cells [2]: non-toxic | toxic effect on gram-positive organisms [3]: no toxic effect

Reference: US20020006638A1, “Methods for recombinant microbial production of fusion proteins and BPI-derived peptides” (priority 1998, published 2002)
